US20050272077

Tests used:
[1] = target: T1, GST-ATF2 fusion protein (residues 1-349), P15336
T1 chain: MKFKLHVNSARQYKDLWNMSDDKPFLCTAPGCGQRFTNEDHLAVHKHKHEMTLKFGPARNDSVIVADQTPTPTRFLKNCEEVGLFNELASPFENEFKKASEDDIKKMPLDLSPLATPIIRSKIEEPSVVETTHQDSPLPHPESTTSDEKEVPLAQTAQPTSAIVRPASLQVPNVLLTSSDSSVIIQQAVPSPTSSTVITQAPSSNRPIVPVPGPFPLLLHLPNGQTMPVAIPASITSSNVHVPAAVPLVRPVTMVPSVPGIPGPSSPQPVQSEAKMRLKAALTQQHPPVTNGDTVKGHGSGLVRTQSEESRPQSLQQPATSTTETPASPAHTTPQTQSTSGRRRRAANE

[2] = target: T2, GST-ATF2 fusion protein (residues 20-109), P15336
T2 chain: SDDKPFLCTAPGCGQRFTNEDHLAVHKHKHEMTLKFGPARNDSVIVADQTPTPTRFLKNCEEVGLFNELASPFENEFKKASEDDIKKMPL

[3] = target: GST-ATF2 fusion protein (residues 1-109, activation domain) [GST: P08515]
[4] = target: T3, GST-ATF2 fusion protein (residues 40-109), P15336
T3 chain: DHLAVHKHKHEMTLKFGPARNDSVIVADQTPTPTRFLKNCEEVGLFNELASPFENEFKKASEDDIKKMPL

[5] = target: T4, GST-ATF2 fusion protein (residues 1-505), P15336
T4 chain: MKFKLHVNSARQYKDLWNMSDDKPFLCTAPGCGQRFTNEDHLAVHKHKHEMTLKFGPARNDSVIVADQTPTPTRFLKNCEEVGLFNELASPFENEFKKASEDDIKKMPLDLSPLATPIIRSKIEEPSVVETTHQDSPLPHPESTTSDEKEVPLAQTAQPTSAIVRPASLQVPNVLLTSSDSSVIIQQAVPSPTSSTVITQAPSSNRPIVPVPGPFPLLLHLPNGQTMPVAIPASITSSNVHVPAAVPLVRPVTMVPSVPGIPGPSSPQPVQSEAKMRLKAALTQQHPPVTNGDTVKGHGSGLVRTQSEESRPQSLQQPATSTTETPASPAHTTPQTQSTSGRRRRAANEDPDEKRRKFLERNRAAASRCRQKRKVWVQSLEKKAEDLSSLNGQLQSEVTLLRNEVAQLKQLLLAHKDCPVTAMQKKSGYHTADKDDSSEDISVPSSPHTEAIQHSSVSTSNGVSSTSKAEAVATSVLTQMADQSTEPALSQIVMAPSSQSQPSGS

[6] = target: T5, GST-ATF2 fusion protein (residues 60-109), P15336
T5 chain: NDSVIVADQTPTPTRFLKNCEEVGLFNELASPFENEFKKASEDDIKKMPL

[7] = target: GST-p38 MAP kinase (wild-type, TGY), Q16539
[8] = target: mutated GST-JNK1 (Ala^183, Phe^185), P45983
GST-MKK4, P45985 = target: T6, GST-MKK4, P45985
T6 chain: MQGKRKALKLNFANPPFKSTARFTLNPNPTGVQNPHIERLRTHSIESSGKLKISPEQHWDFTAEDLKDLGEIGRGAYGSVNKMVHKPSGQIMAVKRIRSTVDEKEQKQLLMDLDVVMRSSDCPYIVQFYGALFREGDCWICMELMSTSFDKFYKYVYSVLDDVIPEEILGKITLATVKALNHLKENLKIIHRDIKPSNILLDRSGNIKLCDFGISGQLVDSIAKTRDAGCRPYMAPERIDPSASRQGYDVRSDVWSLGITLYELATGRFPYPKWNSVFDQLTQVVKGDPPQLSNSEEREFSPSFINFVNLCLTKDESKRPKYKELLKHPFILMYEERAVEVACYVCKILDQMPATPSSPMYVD

Chain of GST-p38 MAP kinase (wild-type, TGY), Q16539 (Q16539 whole entry): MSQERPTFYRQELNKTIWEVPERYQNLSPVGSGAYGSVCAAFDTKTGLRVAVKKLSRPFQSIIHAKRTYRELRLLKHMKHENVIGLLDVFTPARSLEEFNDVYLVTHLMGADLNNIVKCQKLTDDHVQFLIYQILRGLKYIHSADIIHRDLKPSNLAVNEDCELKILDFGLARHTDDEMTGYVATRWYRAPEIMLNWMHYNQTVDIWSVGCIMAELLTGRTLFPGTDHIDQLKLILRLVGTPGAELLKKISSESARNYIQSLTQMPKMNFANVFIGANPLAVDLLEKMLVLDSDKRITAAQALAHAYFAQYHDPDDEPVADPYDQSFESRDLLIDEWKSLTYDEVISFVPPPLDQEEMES
Chain of GST-ERK2 [GST: P08515] (P08515 whole entry, looked up): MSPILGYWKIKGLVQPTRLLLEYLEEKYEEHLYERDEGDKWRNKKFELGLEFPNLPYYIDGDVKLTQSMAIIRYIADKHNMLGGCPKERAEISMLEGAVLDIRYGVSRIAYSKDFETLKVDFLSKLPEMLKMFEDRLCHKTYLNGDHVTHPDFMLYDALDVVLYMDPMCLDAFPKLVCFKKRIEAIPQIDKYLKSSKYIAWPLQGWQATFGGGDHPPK

B1: Flag epitope-tagged JNK1 (protein)
chain: SRSKRDNNFYSVEIGDSTFTVLKRYQNLKPIGSGAQGIVCAAYDAILERNVAIKKLSRPFQNQTHAKRAYRELVLMKCVNHKNIIGLLNVFTPQKSLEEFQDVYIVMELMDANLCQVIQMELDHERMSYLLYQMLCGIKHLHSAGIIHRDLKPSNIVVKSDCTLKILDFGLARTAGTSFMMTPYVVTRYYRAPEVILGMGYKENVDLWSVGCIMGEMVCHKILFPGRDYIDQWNKVIEQLGTPCPEFMKKLQPTVRTYVENRPKYAGYSFEKLFPDVLFPADSEHNKLKASQARDLLSKMLVIDASKRISVDEALQHPYINVWYDPSEAEAPPPKIPDKQLDEREHTIEEWKELIYKEVMDLEERTKNGVIRGQPSPLAQVQQ
For B1, the “phosphorylation of the GST-ATF2 fusion protein (immunocomplex kinase assay)” value (“phosphorylation … (immunocomplex kinase assay)” for short) [1] was “JNK1 phosphorylates GST-ATF2 fusion proteins containing residues 1-505, 1-349, 1-109, 20-109, and 40-109, but not 60-109”, the “phosphorylation … (immunocomplex kinase assay)” value [2] was “JNK1 phosphorylates GST-ATF2 fusion proteins containing residues 1-505, 1-349, 1-109, 20-109, and 40-109, but not 60-109” and the “phosphorylation of GST-ATF2 (residues 1 to 109) (immunocomplex kinase assay, autoradiography)” value [3] was “JNK1-transfected cells, but not mock-transfected cells, phosphorylated ATF2. JNK1 phosphorylation of ATF2 was greater in cells exposed to UV radiation”. For the same protein, the “phosphorylation … (immunocomplex kinase assay)” value [3] was “JNK1 phosphorylates GST-ATF2 fusion proteins containing residues 1-505, 1-349, 1-109, 20-109, and 40-109, but not 60-109”, the “phosphorylation … (immunocomplex kinase assay)” value [4] was “JNK1 phosphorylates GST-ATF2 fusion proteins containing residues 1-505, 1-349, 1-109, 20-109, and 40-109, but not 60-109” and the “phosphorylation … (immunocomplex kinase assay)” value [5] was “JNK1 phosphorylates GST-ATF2 fusion proteins containing residues 1-505, 1-349, 1-109, 20-109, and 40-109, but not 60-109”. For the same protein, the “phosphorylation … (immunocomplex kinase assay)” value [6] was “JNK1 phosphorylates GST-ATF2 fusion proteins containing residues 1-505, 1-349, 1-109, 20-109, and 40-109, but not 60-109”.

B2: 55 kD JNK2 protein kinase (protein)
chain: MSDSKCDSQFYSVQVADSTFTVLKRYQQLKPIGSGAQGIVCAAFDTVLGINVAVKKLSRPFQNQTHAKRAYRELVLLKCVNHKNIISLLNVFTPQKTLEEFQDVYLVMELMDANLCQVIHMELDHERMSYLLYQMLCGIKHLHSAGIIHRDLKPSNIVVKSDCTLKILDFGLARTACTNFMMTPYVVTRYYRAPEVILGMGYKENVDIWSVGCIMGELVKGCVIFQGTDHIDQWNKVIEQLGTPSAEFMKKLQPTVRNYVENRPKYPGIKFEELFPDWIFPSESERDKIKTSQARDLLSKMLVIDPDKRISVDEALRHPYITVWYDPAEAEAPPPQIYDAQLEEREHAIEEWKELIYKEVMDWEERSKNGVVKDQPSDAAVSSNATPSQSSSINDISSMSTEQTLASDTDSSLDASTGPLEGCR
For B2, the “in-gel protein kinase assay with GST-ATF2 (residues 1-505) polymerized in the gel” value [5] was 46 kD and 55 kD protein kinases that phosphorylate ATF2 in extracts prepared from UV-irradiated cells. The 46 kD and 55 kD protein kinases were identified as JNK1 and JNK2, respectively.

B3: GST-MKK4 (protein)
chain: MQGKRKALKLNFANPPFKSTARFTLNPNPTGVQNPHIERLRTHSIESSGKLKISPEQHWDFTAEDLKDLGEIGRGAYGSVNKMVHKPSGQIMAVKRIRSTVDEKEQKQLLMDLDVVMRSSDCPYIVQFYGALFREGDCWICMELMSTSFDKFYKYVYSVLDDVIPEEILGKITLATVKALNHLKENLKIIHRDIKPSNILLDRSGNIKLCDFGISGQLVDSIAKTRDAGCRPYMAPERIDPSASRQGYDVRSDVWSLGITLYELATGRFPYPKWNSVFDQLTQVVKGDPPQLSNSEEREFSPSFINFVNLCLTKDESKRPKYKELLKHPFILMYEERAVEVACYVCKILDQMPATPSSPMYVD
In the case of B3, the “phosphorylation of the substrate protein (in vitro kinase assay, [γ-32P]ATP)” value [7] is reported as “JNK1 and p38 were phosphorylated”, the “phosphorylation of ATF2 in a coupled kinase assay (activation of JNK1)” value (GST-JNK1, P45983) is reported as “ATF2 was phosphorylated in the presence of MKK4 and wild-type JNK1” and the “phosphorylation of the substrate protein (in vitro kinase assay, [γ-32P]ATP)” value (GST-JNK1, P45983) is reported as “JNK1 and p38 were phosphorylated”. For the same protein, the “phosphorylation of ATF2 in a coupled kinase assay (activation of JNK1)” value [8] was “MKK4 incubated with wild-type JNK1, but not mutated JNK1, resulted in increased phosphorylation of ATF2”.

B4: GST-JNK1 (protein)
chain: MSRSKRDNNFYSVEIGDSTFTVLKRYQNLKPIGSGAQGIVCAAYDAILERNVAIKKLSRPFQNQTHAKRAYRELVLMKCVNHKNIIGLLNVFTPQKSLEEFQDVYIVMELMDANLCQVIQMELDHERMSYLLYQMLCGIKHLHSAGIIHRDLKPSNIVVKSDCTLKILDFGLARTAGTSFMMTPYVVTRYYRAPEVILGMGYKENVDLWSVGCIMGEMVCHKILFPGRDYIDQWNKVIEQLGTPCPEFMKKLQPTVRTYVENRPKYAGYSFEKLFPDVLFPADSEHNKLKASQARDLLSKMLVIDASKRISVDEALQHPYINVWYDPSEAEAPPPKIPDKQLDEREHTIEEWKELIYKEVMDLEERTKNGVIRGQPSPLAQVQQ
For B4, the “phosphorylation of MKK4 (in vitro kinase assay, [γ-32P]ATP)” value (GST-MKK4, P45985) was “as was MKK4 incubated with JNK1 and p38”.

B5: MKK6 (protein)
chain: MSQSKGKKRNPGLKIPKEAFEQPQTSSTPPRDLDSKACISIGNQNFEVKADDLEPIMELGRGAYGVVEKMRHVPSGQIMAVKRIRATVNSQEQKRLLMDLDISMRTVDCPFTVTFYGALFREGDVWICMELMDTSLDKFYKQVIDKGQTIPEDILGKIAVSIVKALEHLHSKLSVIHRDVKPSNVLINALGQVKMCDFGISGYLVDSVAKTIDAGCKPYMAPERINPELNQKGYSVKSDIWSLGITMIELAILRFPYDSWGTPFQQLKQVVEEPSPQLPADKFSAEFVDFTSQCLKKNSKERPTYPELMQHPFFTLHESKGTDVASFVKLILGD
B5 was tested, and the “phosphorylation of the substrate protein (in vitro kinase assay)” value (shortened to “phosphorylation … (in vitro kinase assay)”) [7] was “shown to phosphorylate p38 MAP kinase on Thr^180 and Tyr^182, but not JNK1 or ERK2”, the “specific activity relative to MKK3” value [7] was “The specific activity of MKK6 was approximately 300-fold greater than that of MKK3” and the “phosphorylation … (in vitro kinase assay)” value (GST-JNK1, P45983) was “shown to phosphorylate p38 MAP kinase on Thr^180 and Tyr^182, but not JNK1 or ERK2”. For the same protein, the “phosphorylation … (in vitro kinase assay)” value (GST-ERK2 [GST: P08515]) was “shown to phosphorylate p38 MAP kinase on Thr^180 and Tyr^182, but not JNK1 or ERK2”.
